The text below walks through data of US20240287172A1 (SCIRHOM, published 2024).

This experiment has as its target T1, hiR2-FL-H620R-T7 (human, UniProt Q6PJF5 1-856).
T1 sequence: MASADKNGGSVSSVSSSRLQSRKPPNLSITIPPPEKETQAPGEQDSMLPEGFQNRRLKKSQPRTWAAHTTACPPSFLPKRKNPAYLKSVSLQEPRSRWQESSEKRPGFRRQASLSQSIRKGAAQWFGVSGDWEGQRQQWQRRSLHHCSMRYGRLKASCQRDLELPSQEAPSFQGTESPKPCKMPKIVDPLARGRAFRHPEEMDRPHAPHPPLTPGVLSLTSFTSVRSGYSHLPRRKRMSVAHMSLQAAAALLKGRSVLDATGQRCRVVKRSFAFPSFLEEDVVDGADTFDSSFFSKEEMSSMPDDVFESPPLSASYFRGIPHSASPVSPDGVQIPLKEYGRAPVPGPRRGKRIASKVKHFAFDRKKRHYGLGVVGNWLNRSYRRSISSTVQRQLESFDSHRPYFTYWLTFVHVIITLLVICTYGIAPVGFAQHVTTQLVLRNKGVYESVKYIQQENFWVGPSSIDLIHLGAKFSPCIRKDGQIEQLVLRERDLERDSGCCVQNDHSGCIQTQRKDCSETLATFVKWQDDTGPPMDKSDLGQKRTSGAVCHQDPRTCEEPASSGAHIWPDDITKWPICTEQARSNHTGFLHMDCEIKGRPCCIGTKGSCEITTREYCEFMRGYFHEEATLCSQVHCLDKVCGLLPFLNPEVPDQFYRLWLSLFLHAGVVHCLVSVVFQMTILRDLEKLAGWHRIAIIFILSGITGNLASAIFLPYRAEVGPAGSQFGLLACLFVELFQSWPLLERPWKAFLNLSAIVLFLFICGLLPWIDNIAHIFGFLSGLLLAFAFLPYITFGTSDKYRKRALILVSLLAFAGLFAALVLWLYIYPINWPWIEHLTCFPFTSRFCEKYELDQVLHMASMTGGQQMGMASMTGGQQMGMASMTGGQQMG
The experiment in a line: FACS, MEF-DKO cells, 3 µg/ml. The source says:
In brief, immortalized MEF-DKO hiR2-FL-G563D-T7, MEF-DKO hiR2-FL-A564P-T7, MEF-DKO hiR2-FL-1566E-T7, MEF-DKO hiR2-FL-D569E-T7, MEF-DKO hiR2-FL-E579K-T7, MEF-DKO hiR2-FL-Q580N-T7, MEF-DKO hiR2-FL-A581S-T7, MEF-DKO hiR2-FL-R582A-T7, MEF-DKO hiR2-FL-S583G-T7, MEF-DKO hiR2-FL-G587N-T7, MEF-DKO hiR2-FL-F588H-T7, MEF-DKO hiR2-FL-L589P-T7, MEF-DKO hiR2-FL-E594V-T7, MEF-DKO hiR2-FL-K596T-T7, MEF-DKO hiR2-FL-S607R-T7, MEF-DKO hiR2-FL-T612S-T7, MEF-DKO hiR2-FL-E617D-T7, MEF-DKO hiR2-FL-H620R-T7, MEF-DKO hiR2-FL-L636M-T7, MEF-DKO hiR2-FL-K638D-T7, MEF-DKO hiR2-FL-1771F-T7, MEF-DKO hiR2-FL-1825V-T7, MEF-DKO hiR2-FL-1828V-T7, MEF-DKO hiR2-FL-N829R-T7, MEF-DKO hiR2-FL-W830C-T7, MEF-DKO hiR2-FL-P831E-T7, MEF-DKO hiR2-FL-I833C-T7, MEF-DKO hiR2-FL-H835F-T7, MEF-DKO hiR2-FL-F8391-T7, MEF-DKO hiR2-FL-S843D-T7, MEF-DKO hiR2-FL-Q853A-T7, MEF-DKO hiR2-FL-V854Q-T7 and MEF-DKO hiR2-FL-R844K-T7 cells were harvested with 10 mM EDTA in PBS, washed and resuspended in FACS buffer (PBS, 3% FBS, 0.05% sodium azide), and seeded in Nunc U-bottom 96-well plates (Thermo Fisher Scientific, USA) at approximately 1×10⁵ cells per well. To pellet cells and remove supernatants, the plates were centrifuged at 1,500 rpm and 4° C. for 3 minutes. For primary staining, cells were resuspended in 100 μl per well of either FACS buffer alone (controls) or the purified antibodies 3, 5, 16, 22, 34, 42, 43, 44, 48, and 50 of the invention at 3 μg/ml in FACS buffer and incubated on ice for 1 hour. Afterwards, plates were centrifuged at 1,500 rpm and 4° C. for 3 minutes and washed twice with 200 μl per well of FACS buffer. For secondary staining, cells were spun down and resuspended in 100 μl per well of PE-conjugated goat anti-mouse IgG F(ab′)2 detection fragment (Dianova, Germany) diluted 1:100 in FACS buffer. Protected from light, the cell suspensions were incubated on ice for 1 hour. Plates were then centrifuged at 1,500 rpm and 4° C. for 3 minutes and washed three times with 200 μl per well of FACS buffer. Finally, cells were resuspended in 150 μl per well of FACS buffer and analyzed using a BD Accuri™ C6 Plus flow cytometer (Becton Dickinson, Germany).
A general note: Flow cytometry measures light scatter and fluorescence of single cells or particles in a stream.

B1: antibody 43 (antibody, V domains shown)
VH: QVALKESGPGILQPSQTLSLTCSFSGFSLSTFGMGVGWIRQSSGKGLEWLANIWWDDDKYYNPALKSRLTISKDASKNQAFLKIANVDTADTATYYCARIGNYGSNYWYFDVWGTGTTVTVSS
VL: QIVLTQSPAIMSASPGERVTMTCSANSRISYMYWYQQKPGSSPRLLIYDTSNLASGVPVRFSGSGSGTSYSLTISRMEAEDAATYNCQQWSSYPLTFGAGTKLELK
notes: mouse IgG, kappa light chain; also called clone #43; purified antibody 43
As to B1, the “loss of binding vs wild type” value is not below 30%.

B2: antibody 48 (antibody, V domains shown)
VH: QVQLQQSGTELVRPGTSVKVSCKASGYAFTNYLIEWVKQRPGQGLEWIGVINPGSGFTKYNEKFKGKATLTADKSSSTVYMHLSSLTSEDSAVYFCARGLYRAMDYWGQGTSVTVSS
VL: DIQMTQSPASQSASLGESVTITCLASQTIATWLAWYQQKPGKSPQLLIYGATTLADGVPSRFSGGGSGTKFSFKISSLQAEDFVSYYCQQLYSTPYTFGGGTKLEIK
notes: mouse IgG, kappa light chain; also called clone #48; purified antibody 48
On to B2, for which the “loss of binding vs wild type” value is not below 30%.

B3: antibody 50 (antibody, V domains shown)
VH: QVQLQQSGAELVRPGASVKVSCKASGYAFSNYLIEWVKQRPGQGLEWIGVINPGSGFTKYNEKFKGKATLTADKSSSTAYMQLSSLTSEDSAVYFCARGLYRAMDYWGQGTSVTVSS
VL: DIQMTQSPASQSASLGESVTITCLASQTIGTWLAWYQQKPGKSPQLLIYAAASLADGVPSRFSGGGSGTKFSFKISSLQAEDFVNYYCQQIYSTPYTFGGGTKLEIK
notes: mouse IgG, kappa light chain; also called clone #50; purified antibody 50
In the case of B3, the “loss of binding vs wild type” value was not below 30%.
